Measured values as given in patent US20210388087A1 (Chugai, published 2021).

T1: biotin-labeled cynomolgus monkey CD137 fused to human IgG1 Fc fragment (cynomolgus monkey; human, UniProt Q07011 24-186, limits assumed, biotin-labeled)
T1 construct: also called cyno CD137-Fc; not shown: human IgG1 Fc fragment
T1 chain: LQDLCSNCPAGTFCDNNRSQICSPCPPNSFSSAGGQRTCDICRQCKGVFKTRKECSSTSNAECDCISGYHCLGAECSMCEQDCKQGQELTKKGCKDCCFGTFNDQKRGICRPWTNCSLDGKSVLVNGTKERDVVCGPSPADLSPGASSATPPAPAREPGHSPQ

T2: Human CD3eg linker (human)
T2 construct: also called recombinant human CD3
T2 chain: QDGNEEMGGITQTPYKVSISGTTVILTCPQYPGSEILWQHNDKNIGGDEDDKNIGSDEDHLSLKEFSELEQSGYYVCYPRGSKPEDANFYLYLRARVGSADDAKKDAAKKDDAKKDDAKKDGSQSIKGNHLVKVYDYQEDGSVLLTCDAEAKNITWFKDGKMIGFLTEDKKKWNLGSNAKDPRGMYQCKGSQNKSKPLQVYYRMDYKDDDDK


Key:
[1] = biological target: T1, biotin-labeled cynomolgus monkey CD137 …; test: ELISA on streptavidin beads
[2] = biological target: T3, biotin-labeled human CD137 fused to human IgG1 Fc fragment (human, UniProt Q07011 24-186, biotin-labeled); test: bead ELISA, 1250 ng IgG, S/N over biotin-human Fc
T3 construct: also called human CD137-Fc; biotin-human CD137-Fc; not shown: human IgG1 Fc fragment

Human CD137 ECD [3] = biological target: T4, Human CD137 ECD (human); test: SPR (Biacore T200), 37 degrees C, antibody captured by anti-human Fc on CM4 chip, recombinant human CD137 as analyte, 1:1 model; 37 degrees C
T4 construct: also called recombinant human CD137
Protocol: (§1) (15-2) Evaluation of the Binding of GPC3/CD3/Human CD137 Trispecific Antibodies Binding Affinity of Trispecific Antibodies to Human CD3 and CD137 were Assessed at 37 Degrees C. Using Binding affinity of trispecific antibodies to human CD3 and CD137 were assessed at 37 degrees C. using Biacore T200 instrument (GE Healthcare). Anti-human Fc antibody (GE Healthcare) was immobilized onto all flow cells of a CM4 sensor chip using amine coupling kit (GE Healthcare). Antibodies were captured onto the anti-Fc sensor surfaces, then recombinant human CD3 or CD137 was injected over the flow cell. All antibodies and analytes were prepared in ACES pH 7.4 containing 20 mM ACES, 150 mM NaCl, 0.05% Tween 20, 0.005% NaN3. Sensor surface was regenerated each cycle with 3M MgCl2.

Human CD137 ECD [4] = biological target: T4, Human CD137 ECD; test: SPR (Biacore T200), 37 degrees C, antibody captured by anti-human Fc on CM4 chip, recombinant human CD137 as analyte, 1:1 model
Protocol: as §1

Human CD3eg linker = biological target: T2, Human CD3eg linker; test: SPR (Biacore T200), 37 degrees C, antibody captured by anti-human Fc on CM4 chip, recombinant human CD3 as analyte, 1:1 model
Protocol: as §1

T4 sequence (chain, as listed by the source limits assumed): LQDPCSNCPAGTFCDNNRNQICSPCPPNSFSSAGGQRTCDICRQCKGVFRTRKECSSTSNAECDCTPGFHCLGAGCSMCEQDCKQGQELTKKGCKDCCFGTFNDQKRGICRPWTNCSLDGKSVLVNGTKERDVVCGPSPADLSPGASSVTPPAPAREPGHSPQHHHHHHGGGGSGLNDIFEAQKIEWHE
T3 sequence (Q07011 24-186 limits assumed): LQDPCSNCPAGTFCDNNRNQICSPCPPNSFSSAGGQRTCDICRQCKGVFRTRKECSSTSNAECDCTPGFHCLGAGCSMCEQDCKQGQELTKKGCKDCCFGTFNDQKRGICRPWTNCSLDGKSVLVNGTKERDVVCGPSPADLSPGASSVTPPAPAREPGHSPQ

Row | Binder | binding result [1] | binding result [2] | kon (Human CD137 ECD [3]) [M⁻¹ s⁻¹] | Kd (Human CD137 ECD [4]) [nM] | koff (Human CD137 ECD [4]) [s⁻¹] | Kd (Human CD3eg linker) [nM] | koff (Human CD3eg linker) [s⁻¹] | kon (Human CD3eg linker) [M⁻¹ s⁻¹]
1 | dBBDu126 (antibody, human IgG1, V domains shown, human IgG1; GLS3000 light chain; also called DADU01_3 #001; DADU01_3_#001) VH: QVQLVESGGGLVQPGRSLRLSCAASGFTFSIAWMHWVRQAPGKGLEWVAQIKDRVNAYEAYYAPSVKGRFTISRDDSKNSIYLQMNSLKTEDTAVYYCRYVHYASYYDLLGYGGVDAWGQGTTVTVSS VL: DIVMTQSPLSLPVTPGEPASISCRSSQSLVHSNRNTYLHWYQQKPGQAPRLLIYKVSNRFSGVPDRFSGSGSGTDFTLKISRVEAEDVGVYYCGQGTQVPYTFGQGTKLEIK | no binding (tested: 25 micro L of 50 ng/micro L purified IgG) | binds |  |  |  |  |  | 
2 | GPC3/CD137 × CD3 trispecific antibody (antibody, V domains shown, Trispecific mAb AB made by Fab-arm exchange from mAb A (CrossMab, two Fv per arm: Fv A1 and Fv A2) and mAb B (conventional IgG, Fv B); Fc gamma R-silent, deglycosylated Fc; also called GPC3/CD137xCD3) VH 1: QVQLQQWGAGLLKPSETLSLTCAVYGGSFSGYYWSWIRQSPEKGLEWIGEINHGGYVTYNPSLESRVTISVDTSKNQFSLKLSSVTAADTAVYYCARDYGPGNYDWYFDLWGRGTLVTVSS VL 1: EIVLTQSPATLSLSPGERATLSCRASQSVSSYLAWYQQKPGQAPRLLIYDASNRATGIPARFSGSGSGTDFTLTISSLEPEDFAVYYCQQRSNWPPALTFGGGTKVEIK VH 2: QVQLVESGGGLVQPGRSLRLSCAASGFTFSNAWMHWVRQAPGKGLEWVAQIKDRANSYNTYYAESVKGRFTISRDDSKNSIYLQMNSLKTEDTAVYYCRYVHYTTYAGSSFSYGVDAWGQGTTVTVSS VL 2: DIVMTQSPLSLPVTPGEPASISCRSSQPLVHSNRNTYLHWYQQKPGQAPRLLIYKVSNRFSGVPDRFSGSGSGTDFTLKISRVEAEDVGVYYCGQGTQVPYTFGQGTKLEIK VH 3: QVQLVQSGAEVKKPGASVTVSCKASGYTFTDYEMHWIRQPPGEGLEWIGAIDGPTPDTAYSEKFKGRVTLTADKSTSTAYMELSSLTSEDTAVYYCTRFYSYTYWGQGTLVTVSS VL 3: DIVMTQSPLSLPVTPGEPASISCRSSQPLVHSNRNTYLHWYQQKPGQAPRLLIYKVSNRFSGVPDRFSGSGSGTDFTLKISRVEAEDVGVYYCGQGTQVPYTFGQGTKLEIK |  |  | 547000 | 37.7 | 0.0206 | 19.7 | 0.00161 | 81800
